The text below walks through data of patent US20260184814A1, “BROADLY NE[…] INFLUENZA NEURAMINIDASE” (priority 2022, published 2026).

The target of assay [1] is human C1q (human) (UniProt P02745). Nature of the assay: MSD.
Assay [2] deals with human FcγRIIa (H131 allele) (human) (UniProt P12318). Kind of assay: MSD.
In assay [3] the target is human FcγRIIIa (F158 allele) (human) (UniProt P08637). Kind of assay: MSD.
Assay [4] has as its target human FcγRIIIa (V158 allele) (human) (UniProt P08637). Nature of the assay: MSD.
The target in assay [5] is human FcγRIIa (R131 allele) (human) (UniProt P12318). Nature of the assay: MSD.
The target in assay [6] is human FcγRIIIb (human) (UniProt O75015). Kind of assay: MSD.
For assay [7], the target named is human FcγRIIb (human) (UniProt P31994). Nature of the assay: MSD.
Assay [8] concerns the target human FcRn (human) (UniProt P55899). Kind of assay: MSD.
The target of assay [9] is human FcγRIIa (H131 allele) (human) (UniProt P12318).
The target of assay [10] is human FcγRIIIa (F158 allele) (human) (UniProt P08637).
In assay [11] the target is human FcγRIIIa (V158 allele) (human) (UniProt P08637).
The target in assay [12] is human FcγRIIb (human) (UniProt P31994).
Assay [13] addresses human FcRn (human) (UniProt P55899). Kind of assay: MSD, pH 6 [cont'd].
Assay [14] addresses human C1q (human) (UniProt P02745). Kind of assay: MSD [cont'd].
The target in assay [15] is human FcRn (human) (UniProt P55899). Kind of assay: MSD [cont'd].
Assay [16] addresses human FcγRIIIa (F158 allele) (human) (UniProt P08637). The source holds these as a separate data set.
For assay [17], the target named is human FcγRIIIa (V158 allele) (human) (UniProt P08637). This is another data set of the same source.
The target of assay [18] is human FcγRIIa (H131 allele) (human) (UniProt P12318). Kind of assay: MSD [cont'd].
Assay [19] addresses human FcγRIIIa (F158 allele) (human) (UniProt P08637). Nature of the assay: MSD [cont'd].
Assay [20] has as its target human FcγRIIIa (V158 allele) (human) (UniProt P08637). Kind of assay: MSD [cont'd].
In assay [21] the target is human FcγRIIa (R131 allele) (human) (UniProt P12318). Kind of assay: MSD [cont'd].
The target of assay [22] is human FcγRIIIb (human) (UniProt O75015). Kind of assay: MSD [cont'd].
Assay [23] concerns the target human FcγRIIb (human) (UniProt P31994). Nature of the assay: MSD [cont'd].
Assay [24] concerns the target human FcγRIIa (H131 allele) (human) (UniProt P12318). Nature of the assay: MSD electrochemiluminescence binding assay; column IIA_H.
In assay [25] the target is human FcγRIIb (human) (UniProt P31994). Nature of the assay: MSD electrochemiluminescence binding assay; column IIB.
Assay [26] concerns the target human FcγRIIIa (V158 allele) (human) (UniProt P08637). Kind of assay: MSD electrochemiluminescence binding assay; column IIIA_V.
The target in assay [27] is human FcγRIIa (R131 allele) (human) (UniProt P12318). Kind of assay: MSD electrochemiluminescence binding assay; column IIA_R.
The target in assay [28] is human FcRn (human) (UniProt P55899). Kind of assay: MSD electrochemiluminescence binding assay; column FcRn.
Assay [29] has as its target human FcγRIIIb (human) (UniProt O75015). Nature of the assay: MSD electrochemiluminescence binding assay; column IIIB.
Assay [30] addresses human FcγRIIIa (F158 allele) (human) (UniProt P08637). Nature of the assay: MSD electrochemiluminescence binding assay; column IIIA_F.
Assay [31] addresses human C1q (human) (UniProt P02745). Nature of the assay: MSD [cont'd]. The source holds these as a separate data set.
Assay [32] addresses human FcγRIIa (H131 allele) (human) (UniProt P12318). The source holds these as a separate data set.
Assay [33] deals with human FcγRIIIa (F158 allele) (human) (UniProt P08637). The source holds these as a separate data set.
Assay [34] addresses human FcγRIIb (human) (UniProt P31994). The source holds these as a separate data set.

Values joined by “and” are separate entries in the source; they are usually repeats but may differ in a detail not shown here. Equal values may be shown once. Read-outs that look alike come from different tables or passages of the source.

Chain of human FcRn (human) (P55899 24-297 limits assumed, chain 1 of 2): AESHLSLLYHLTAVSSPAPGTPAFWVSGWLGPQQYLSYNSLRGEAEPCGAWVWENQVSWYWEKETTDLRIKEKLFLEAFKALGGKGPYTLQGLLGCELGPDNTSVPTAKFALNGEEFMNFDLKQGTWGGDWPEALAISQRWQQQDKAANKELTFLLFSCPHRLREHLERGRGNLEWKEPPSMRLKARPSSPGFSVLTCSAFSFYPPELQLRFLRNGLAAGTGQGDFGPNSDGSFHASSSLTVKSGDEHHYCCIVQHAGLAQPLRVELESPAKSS
Chain of human FcRn (human) (chain, as listed by the source limits assumed, chain 2 of 2): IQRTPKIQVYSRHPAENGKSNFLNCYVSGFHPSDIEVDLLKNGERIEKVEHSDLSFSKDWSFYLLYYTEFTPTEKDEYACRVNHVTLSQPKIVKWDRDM
Chain of human FcγRIIb (human) (P31994 43-217 limits assumed): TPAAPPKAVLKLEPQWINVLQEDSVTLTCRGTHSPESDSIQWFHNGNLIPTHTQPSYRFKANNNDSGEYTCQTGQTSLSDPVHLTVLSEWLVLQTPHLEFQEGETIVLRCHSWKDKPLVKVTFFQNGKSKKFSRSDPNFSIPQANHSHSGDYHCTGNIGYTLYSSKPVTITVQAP
Chain of human FcγRIIIb (human) (O75015 17-200 limits assumed): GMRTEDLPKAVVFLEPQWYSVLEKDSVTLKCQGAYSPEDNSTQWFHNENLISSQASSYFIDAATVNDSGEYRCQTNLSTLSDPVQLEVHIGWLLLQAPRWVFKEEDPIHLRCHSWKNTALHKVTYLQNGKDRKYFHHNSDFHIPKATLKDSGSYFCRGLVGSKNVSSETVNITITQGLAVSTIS
Chain of human FcγRIIIa (V158 allele) (human) (P08637 17-208 F176V limits assumed): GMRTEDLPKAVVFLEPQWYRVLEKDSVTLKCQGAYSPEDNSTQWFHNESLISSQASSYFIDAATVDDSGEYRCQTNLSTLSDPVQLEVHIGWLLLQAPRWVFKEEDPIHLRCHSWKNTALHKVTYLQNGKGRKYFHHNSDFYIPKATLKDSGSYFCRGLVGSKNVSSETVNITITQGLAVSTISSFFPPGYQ
Chain of human FcγRIIa (H131 allele) (human) (P12318 34-218 limits assumed): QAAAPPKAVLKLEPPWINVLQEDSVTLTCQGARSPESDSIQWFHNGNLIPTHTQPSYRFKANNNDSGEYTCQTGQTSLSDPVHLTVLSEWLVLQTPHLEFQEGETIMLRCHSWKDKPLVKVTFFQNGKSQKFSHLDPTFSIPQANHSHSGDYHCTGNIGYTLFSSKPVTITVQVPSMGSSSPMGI
Chain of human C1q (human) (P02745 23-245 limits assumed, chain 1 of 3): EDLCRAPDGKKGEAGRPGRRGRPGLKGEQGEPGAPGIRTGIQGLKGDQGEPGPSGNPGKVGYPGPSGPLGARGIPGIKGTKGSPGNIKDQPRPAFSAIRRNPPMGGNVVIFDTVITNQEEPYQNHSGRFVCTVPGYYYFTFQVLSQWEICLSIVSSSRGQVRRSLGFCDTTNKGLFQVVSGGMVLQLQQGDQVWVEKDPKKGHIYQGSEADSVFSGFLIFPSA
Chain of human C1q (human) (P02746 28-253 limits assumed, chain 2 of 3, further chain): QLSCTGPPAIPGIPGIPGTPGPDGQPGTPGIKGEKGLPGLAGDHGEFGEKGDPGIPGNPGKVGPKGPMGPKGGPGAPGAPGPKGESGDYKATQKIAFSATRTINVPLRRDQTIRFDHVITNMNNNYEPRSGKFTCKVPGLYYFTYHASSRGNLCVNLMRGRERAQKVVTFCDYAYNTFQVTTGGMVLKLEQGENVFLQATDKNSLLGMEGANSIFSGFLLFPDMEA
Chain of human C1q (human) (P02747 29-245 limits assumed, chain 3 of 3, further chain): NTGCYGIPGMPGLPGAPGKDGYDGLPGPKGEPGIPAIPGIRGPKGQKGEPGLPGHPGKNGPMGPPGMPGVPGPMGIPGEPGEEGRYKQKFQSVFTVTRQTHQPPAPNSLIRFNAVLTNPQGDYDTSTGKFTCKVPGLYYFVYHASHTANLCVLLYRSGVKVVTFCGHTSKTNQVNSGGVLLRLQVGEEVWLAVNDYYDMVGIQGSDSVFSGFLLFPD
Chain of human FcγRIIa (R131 allele) (human) (P12318 34-218 H167R limits assumed): as the sequence (P12318 34-218 limits assumed) above, with H134R counted along it
Chain of human FcγRIIIa (F158 allele) (human) (P08637 17-208 limits assumed): as the sequence (P08637 17-208 F176V limits assumed) above, with V160F counted along it

With G236A (antibody), the fold-change vs FY1 rIgG1m3 in assay [1] was 0.59 fold and 0.36 fold; in assay [2], 5.9 fold and 12.1 fold; in assay [3] it was 0.6 fold and 0.8 fold; in assay [4], 0.4 fold and 0.6 fold; in assay [5], 4.8 fold and 6.3 fold; in [6], 0.82 fold. Moreover, in assay [7], the fold-change vs FY1 rIgG1m3 was 0.6 fold and 1.1 fold.
In the case of “G236A_A330L_I332E_M428L_N434S (antibody)”, the fold-change to WT Fc in assay [2] is 2.89 fold; in [4], 1.56 fold; in [7], 0.422 fold; in assay [13] it was 12.3 fold. Further, the fold-change vs FY1 rIgG1m3 was determined as 2.9 fold in [2]; 9.4 fold in assay [3]; 1.6 fold in [4]; 1.3 fold in assay [5]; 1.4 fold in assay [6]; 0.4 fold in assay [7]. For the same substance, the fold-change vs FY1 rIgG1m3 in assay [8] worked out at 12.3 fold. For the same substance, the fold-change vs FY1 rIgG1m3-MLNS is 3.8 fold in [2]; 14.4 fold in assay [3]; 2.1 fold in assay [4]; 2.5 fold in assay [5]; 1.9 fold in [6]; 0.8 fold in assay [7]. The fold-change vs FY1 rIgG1m3-MLNS in [8] is 0.68 fold. For the same substance, the fold-change vs wt in assay [2] turned out to be 2.89 fold; in [3], 9.41 fold; in assay [4] it was 1.56 fold; in [5] it was 1.27 fold; in assay [6] it was 1.4 fold; in [7], 0.42 fold. The fold-change vs wt worked out at 0 fold in [14] and 12.3 fold in assay [15]. The FcγR reporter signaling, fold-change vs wt [cont'd] in [9] is 2.32 fold; in assay [10], 13.5 fold; in assay [11], 3.92 fold; in assay [12] it was 0.35 fold.
Take G236A_R292P_I377N-afuc (antibody): the fold-change (reference not given) in assay [2] worked out at 5.5 fold; in assay [3] it was 14.8 fold; in [4] it was 7.1 fold; in assay [5], 1.4 fold; in assay [6], 1.2 fold; in [7], 0.6 fold. Moreover, the FcγR reporter signaling, fold to wt-fucose [cont'd] worked out at 9.68 fold in [16] and 3.94 fold in assay [17]. Besides, the fold to wt-fucose amounted to 5.54 fold in [18]; 14.8 fold in assay [19]; 7.14 fold in assay [20]; 1.35 fold in assay [21]; 1.2 fold in assay [22]; 0.6 fold in [23]. In addition, the fold to wt-fucose in [15] is 0.8 fold.
As to GA (Fc-LS) (antibody), the fold-change vs FY1 rIgG1m3-MLNS in assay [1] was 0.35 fold; in [2], 10 fold; in assay [3], 0.93 fold; in [4] it was 0.52 fold; in assay [5], 6.9 fold; in assay [6] it was 0.84 fold. The fold-change vs FY1 rIgG1m3-MLNS in assay [7] is 1.1 fold; in assay [8], 0.95 fold.
Take GRLR (Fc-LS) (antibody): the fold-change vs FY1 rIgG1m3-MLNS in assay [2] was 0.28 fold; in assay [3], 0.25 fold; in [4] it was 0.08 fold; in [5], 0.38 fold; in assay [6] it was 0.7 fold; in assay [7], 0.38 fold. The fold-change vs FY1 rIgG1m3-MLNS in assay [8] is 0.69 fold.
On to “IgG1 antibody with Fc variant G236A (afucosylated)”, for which the fold-change (reference not given) in assay [1] was 0.16 fold; in [2], 5.4 fold and 9.5 fold; in [3], 17.2 fold and 35.6 fold; in assay [4] it was 6.7 fold; in assay [5], 6.1 fold and 9.9 fold; in assay [6] it was 2.1 fold and 1.8 fold. The fold-change (reference not given) in assay [7] was 0.6 fold and 1.1 fold.
Regarding “IgG1 antibody with Fc variant G236A_K334A_Q295E”, the fold-change in binding vs wild-type IgG1 in assay [24] came to 5.01; in [25], 0.4; in assay [26], 0.27; in assay [27], 2.88; in assay [28], 1.02; in assay [29] it was 0.72. Moreover, the fold-change in binding vs wild-type IgG1 in assay [30] was found to be 0.74. Further, the fold-change vs wt in assay [2] came to 4.96 fold; in assay [3], 0.74 fold; in assay [4], 0.27 fold; in assay [5], 2.92 fold; in [6], 0.72 fold; in assay [7] it was 0.67 fold. In addition, the fold-change vs wt in assay [14] worked out at 0.9 fold; in assay [15] it was 1.02 fold. Besides, the FcγR reporter signaling, fold-change vs wt [cont'd] in assay [9] came out at 2.13 fold; in assay [10], 0.23 fold; in [11], 0.36 fold; in assay [12], 0.8 fold.
On to “IgG1 antibody with Fc variant G236A_P230A_Q295E”, for which the fold-change in binding vs wild-type IgG1 in [24] was 7.59; in [25], 0.48; in assay [26] it was 0.31; in [27] it was 4.57; in [28] it was 0.93; in assay [29] it was 0.72. For the same substance, the fold-change in binding vs wild-type IgG1 in [30] is 0.48. Also, the fold-change vs wt in assay [2] came out at 7.67 fold; in assay [3], 0.48 fold; in assay [4] it was 0.31 fold; in assay [5], 4.57 fold; in assay [6], 0.72 fold; in assay [7], 0.54 fold. For the same substance, the fold-change vs wt in assay [14] is 0.3 fold; in [15] it was 0.93 fold. Also, the FcγR reporter signaling, fold-change vs wt [cont'd] in assay [9] is 2.29 fold; in assay [10] it was 0.02 fold; in assay [11], 0.06 fold; in [12], 0.56 fold.
As to “IgG1 antibody with Fc variant G236A_Y300L”, the fold-change vs FY1 rIgG1m3 in assay [1] came out at 0.98 fold; in assay [2], 18.2 fold; in assay [3] it was 1 fold; in assay [4], 0.9 fold; in [5], 4.6 fold; in [6] it was 0.97 fold. The fold-change vs FY1 rIgG1m3 in [7] worked out at 1.1 fold.
Regarding “IgG1 antibody with Fc variant G236S_R292P_Y300L”, the fold-change to WT Fc in assay [2] stood at 10.9 fold; in assay [4] it was 0.753 fold; in assay [5], 1.34 fold; in assay [7], 0.817 fold; in [13], 0.87 fold; in assay [14], 1.98 fold. Moreover, in assay [19], the fold-change to WT Fc worked out at 1.06 fold. In addition, the fold-change vs wt in assay [2] amounted to 10.8 fold; in [3], 1.06 fold; in [4], 0.75 fold; in [5], 1.34 fold; in [6] it was 1.04 fold; in [7], 0.82 fold. Besides, the values for the fold-change vs wt in [31], in [14] and in assay [15] were 1.96 fold, 1.98 fold and 0.87 fold, respectively. The FcγR reporter signaling, fold-change vs wt [cont'd] in [9] was found to be 2.24 fold; in [10], 1.52 fold; in assay [11], 1.32 fold; in assay [12], 0.93 fold.
In the case of L309T_P238D_P396L_T366A (antibody), the FcγR reporter signaling, fold-change vs wt [cont'd] in [32] worked out at 0.04 fold; in assay [33], 0.05 fold; in [34], 0.91 fold.
